± gives the uncertainty stated by the source.
Assay: self-splicing fitness, log relative to wild type (ln ratio); higher = more splicing; Tetrahymena group I intron in knt gene, E. coli kanamycin selection, DiMSum; sequences stand for … in CUCUCU…GGAGGGAAAAGUUAUCAGGCAUGCACCUGGUAGCUAGUCUUUAAACCAAUAGAUUGCAUCGGUUUAAAAGGCAAGACCGUCAAAUUGCGGGAAAGGGGUCAACAGCCGUUCAGUACCAAGUCUCAGGGGAAACUUUGAGAUGGCCUUGCAAAGGGUAUGGUAAUAAGCUGACGGACAUGGUCCUAACCACGCAGCCAAGUCCUAAGUCAACAGAUCUUCUGUUGAUAUGGAUGCAGUUCACAGACUAAAUGUCGGUCGGGGAAGAUGUAUUCUUCUCAUAAGAUAUAGUCGGACCUCUCCUUAAUGGGAGCUAGCGGAUGAAGUGAUGCAACACUGGAGCCGCUGGGAACUAAUUUGUAUGCGAAAGUAUAUUGAUUAGUUUUGGAGUACUCGUGGUCG
How it was run: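 Library with all eight P1ex-region intron nucleotides randomised, intron inside the knt kanamycin-resistance gene on pET-22b(+), in E. coli BL21(DE3). Cells grew overnight at 37°C or 30°C on LB agar with or without 25 μg/mL kanamycin (plus 100 μg/mL carbenicillin, 50 μM IPTG, 0.2% rhamnose), in six replicate transformations. Pooled colonies were amplicon-sequenced on Illumina HiSeq 2500. DiMSum fitness is the error-weighted combination of wild-type-normalised replicate fold changes, kanamycin versus none.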

| Sequence | self-splicing fitness (ln) (30 °C) | self-splicing fitness (ln) (37 °C) |
| --- | --- | --- |
| GCAUAGCAAUAUUACGCUCC | -1.61 ± 0.17 | -1.94 ± 0.31 |
| GCAUAGCAAUAUUACGCUGC | -3.08 ± 0.44 | -2.11 ± 0.37 |
| GCAUAGCAAUAUUACGGAUA | -1.81 ± 0.22 | -0.643 ± 0.18 |
| GCAUAGCAAUAUUACGGAUC | -2.47 ± 0.21 | -1.63 ± 0.18 |
| GCAUAGCAAUAUUACGGCGC | -0.822 ± 0.17 | -0.485 ± 0.2 |
| GCAUAGCAAUAUUACGGGAA | -2.52 ± 0.21 | -0.707 ± 0.12 |
| GCAUAGCAAUAUUACGGGAG | -2.96 ± 0.19 | -0.949 ± 0.12 |
| GCAUAGCAAUAUUACGGGCA | -1.67 ± 0.14 | -0.974 ± 0.12 |
| GCAUAGCAAUAUUACGGGGC | -3.43 ± 0.23 | -2.72 ± 0.32 |
| GCAUAGCAAUAUUACGUACC | -0.706 ± 0.19 | -0.405 ± 0.26 |
| GCAUAGCAAUAUUACGUCAG | -2.47 ± 0.16 | -1.8 ± 0.23 |
| GCAUAGCAAUAUUACGUCCC | -1.38 ± 0.22 | 0.182 ± 0.21 |
| GCAUAGCAAUAUUACGUCUU | -1.46 ± 0.1 | -0.342 ± 0.11 |
| GCAUAGCAAUAUUACGUGAA | -0.877 ± 0.067 | -0.528 ± 0.07 |
| GCCAAGCAAUAUUACGAAAG | -3.63 ± 0.21 | -0.702 ± 0.2 |
| GCCAAGCAAUAUUACGAACU | -1.3 ± 0.18 | -0.873 ± 0.22 |
| GCCAAGCAAUAUUACGAAGU | -1.12 ± 0.049 | -0.235 ± 0.064 |
| GCCAAGCAAUAUUACGACCU | -1.34 ± 0.11 | -1.54 ± 0.15 |
| GCCAAGCAAUAUUACGAGAG | -2.88 ± 0.34 | -1.53 ± 0.22 |
| GCCAAGCAAUAUUACGAGCC | -3.51 ± 0.43 | -1.99 ± 0.43 |
| GCCAAGCAAUAUUACGAGUA | -3.27 ± 0.13 | -1.61 ± 0.07 |
| GCCAAGCAAUAUUACGAGUC | -1.58 ± 0.1 | -1.1 ± 0.12 |
| GCCAAGCAAUAUUACGCAAA | -1.13 ± 0.11 | -0.448 ± 0.12 |
| GCCAAGCAAUAUUACGCACA | -1.07 ± 0.14 | -0.724 ± 0.15 |

| Sequence | self-splicing fitness (ln) (30 °C) | self-splicing fitness (ln) (37 °C) |
| --- | --- | --- |
| GCCAAGCAAUAUUACGCAGA | -3.13 ± 0.16 | -2.22 ± 0.15 |
| GCCAAGCAAUAUUACGCAUC | -0.673 ± 0.082 | 0.0458 ± 0.095 |
| GCCAAGCAAUAUUACGCCAU | -3.22 ± 0.37 | -3.45 ± 0.46 |
| GCCAAGCAAUAUUACGCCGU | -2.07 ± 0.087 | -1.45 ± 0.12 |
| GCCAAGCAAUAUUACGCCUG | -4.13 ± 0.39 | -1.13 ± 0.19 |
| GCCAAGCAAUAUUACGCGAG | -2.43 ± 0.11 | -2 ± 0.17 |
| GCCAAGCAAUAUUACGCGUC | -1.31 ± 0.068 | -1.71 ± 0.088 |
| GCCAAGCAAUAUUACGGAGC | -3.32 ± 0.1 | -2.38 ± 0.12 |
| GCCAAGCAAUAUUACGGGAA | -0.356 ± 0.064 | -0.585 ± 0.079 |
| GCCAAGCAAUAUUACGGUCG | -3.19 ± 0.13 | -2.27 ± 0.17 |
| GCCAAGCAAUAUUACGGUUG | -3.23 ± 0.099 | -2.54 ± 0.14 |
| GCCAAGCAAUAUUACGUAAU | -1.11 ± 0.062 | -0.183 ± 0.074 |
| GCCAAGCAAUAUUACGUAUG | -2.94 ± 0.15 | -1 ± 0.13 |
| GCCAAGCAAUAUUACGUGAC | -1.89 ± 0.13 | -0.468 ± 0.12 |
| GCCAAGCAAUAUUACGUGCG | -2 ± 0.089 | -0.737 ± 0.1 |
| GCCAAGCAAUAUUACGUUAA | -3.54 ± 0.21 | -2.89 ± 0.17 |
| GCCCAGCAAUAUUACGAAAU | -1.7 ± 0.068 | -1.36 ± 0.089 |
| GCCCAGCAAUAUUACGAACA | -1.58 ± 0.12 | -1.46 ± 0.11 |
| GCCCAGCAAUAUUACGAACG | -1.79 ± 0.32 | -0.725 ± 0.34 |
| GCCCAGCAAUAUUACGAUUG | -2.63 ± 0.14 | -2.57 ± 0.22 |
| GCCCAGCAAUAUUACGCAAU | -1.23 ± 0.059 | -0.336 ± 0.069 |
| GCCCAGCAAUAUUACGCACC | -0.112 ± 0.075 | 0.19 ± 0.097 |
| GCCCAGCAAUAUUACGCAGG | -3.19 ± 0.13 | -2.27 ± 0.15 |

From the supplement of paper PMC7877785
